T1: VegT (Xenopus, UniProt P87377 1-455)
T1 sequence: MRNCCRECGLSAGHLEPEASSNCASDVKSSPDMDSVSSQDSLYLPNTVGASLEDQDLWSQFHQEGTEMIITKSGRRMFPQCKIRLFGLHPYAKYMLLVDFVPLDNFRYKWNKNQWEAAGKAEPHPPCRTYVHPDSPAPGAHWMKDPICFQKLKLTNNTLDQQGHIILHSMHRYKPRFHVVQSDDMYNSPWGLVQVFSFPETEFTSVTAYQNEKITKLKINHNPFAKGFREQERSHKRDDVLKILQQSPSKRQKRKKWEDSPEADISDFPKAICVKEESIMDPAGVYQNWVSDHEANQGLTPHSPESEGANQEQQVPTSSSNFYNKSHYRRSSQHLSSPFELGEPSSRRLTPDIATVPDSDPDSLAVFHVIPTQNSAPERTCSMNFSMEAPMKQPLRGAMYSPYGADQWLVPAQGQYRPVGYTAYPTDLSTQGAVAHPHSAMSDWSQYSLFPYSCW

B1: B1 T-box mutant (dsDNA)
DNA 1: TCTCCAGAGTACGCACATTCATTGTTTGTTA
DNA 2: TAACAAACAATGAATGTGCGTACTCTGGAGA
B2: B1 T-box probe (dsDNA)
DNA 1: TGTCCAGAGTTCACACCATCATTGTTTGTTA
DNA 2: TAACAAACAATGATGGTGTGAACTCTGGACA
B3: T-box consensus (Derrière) (dsDNA)
DNA 1: TCTCCAGAGTTCACACCTTCATTGTTTGTTA
DNA 2: TAACAAACAATGAAGGTGTGAACTCTGGAGA

The series deals with T1, VegT. Briefly: EMSA; poly(dI.dC); 15 µl with 3 µl MDB buffer (20 mM HEPES pH 7.9, 100 mM KCl, 12.5 mM MgCl2, 0.1 mM EDTA, 17% glycerol, 2 mM DTT (printed DDT)), 2 µg poly(dI.dC), 1 µl IVT protein, 10 min + 10 min (preincubation at 30 °C); 15% gel at 4 °C; 50-fold competitor in controls. Conditions: label: 5' 32P (forward strand), blunt.
Turning to B1, the binding result was “no binding”.
Then B2, with “binds”; and B3, with “binds”.

Source of the values: paper PMC2098691, “Regulation of the Xenopus Xsox17α1 promoter by co-operating VegT and Sox17 sites”.
